The values below come from patent US20180346523A1.

For this test, the target named is NLS-PpsR2-VP16 (Rhodopseudomonas palustris; H. simplex). As to the kind of experiment: cell-based or functional assay.

Where only a bound is given, the exact number is not on record here.

Consider “BphP1-mCherry-TetR (from UniProt P04483 1-207)”, for which the EGFP signal, illuminated over dark-treated cells (pTRE-Tight-EGFP reporter, flow cytometry) is over 27 fold; the Rluc8 activation with 740 nm light against 470 nm light in cultured HeLa cells was determined as 18 fold; the Rluc8 light-to-dark signal ratio in mouse liver after hydrodynamic transfection (pKA-207I10), 48 h worked out at 5.7 fold; the Rluc8 signal, 740 nm illuminated mice over mice in darkness, HeLa cells injected subcutaneously, 48 h is 32 fold. The substance further yielded an SEAP level, 740 nm light over darkness, after 12 h of 3 fold; an SEAP level, 740 nm light over darkness, after 48 h (pTRE-Tight-SEAP reporter, HeLa) of 40 fold; an SEAP reporter expression against the PhyB-PIF6 system, same reporter plasmid of 2 fold; a decrease of SEAP production by 12 h of 636 nm light after 12 h of 740 nm light, against cells kept in darkness of 2.3 fold. The substance also came in with a half-time of SEAP accumulation under 740 nm light of 18 h and a rate of SEAP decrease in darkness after 636 nm illumination, against darkness alone of 2 fold.
